Consider 8 sequences from the Immune Epitope Database (IEDB).

In one test the target is HLA-A*02:11. The experiment in a line: IEDB peptide-MHC binding, purified MHC/competitive/fluorescence; filed as Kd, often an IC50 or EC50 that approximates it; ≥ and ≤ were set here for values at or beyond the usual limits of such assays.
Test [1] addresses HLA-A*24:03. Described as above.
The target of test [2] is HLA-A*29:02. The test is described as above. The note with it: source organism: Vibrio parahaemolyticus K5030.
In test [3] the target is HLA-B*57:01. The test is described as above.
A further test has as its target HLA-A*02:19. The test is described as above.
Test [4] has as its target HLA-A*02:01. The test is described as above.
The target of the next test is HLA-B*51:01. The description is as above.
For test [5], the target named is HLA-B*46:01. The test is described as above.
For a further test, the target named is HLA-B*27:03. The test is described as above.
The next test concerns the target HLA-A*26:01. The test is described as above.
In test [6] the target is HLA-A*03:01. The test is described as above.
In test [7] the target is HLA-B*18:01. The description is as above. The note with it: source organism: Vibrio parahaemolyticus K5030.
The target of another test is HLA-B*15:17. Described as above.
Another test concerns the target HLA-A*02:03. The test is described as above. Particulars: source organism: Cryptosporidium parvum Iowa II.
The target in test [8] is HLA-B*15:01. The description is as above. Particulars: source organism: Cryptosporidium parvum Iowa II.
The target in another test is HLA-B*48:01. Kind of test: IEDB peptide-MHC binding, purified MHC/direct/fluorescence; filed as Kd, often an IC50 or EC50 that approximates it; ≥ and ≤ were set here for values at or beyond the usual limits of such assays.
The target of another test is HLA-B*58:01. The test is described as above.
Test [9] has as its target HLA-A*24:03. The test is described as above. Particulars: source organism: Maporal virus.
Test [10] addresses HLA-A*29:02. The test is described as above.
The target of a further test is HLA-B*44:02. The description is as above.
In the next test the target is HLA-A*02:12. The description is as above. The note with it: source organism: Maporal virus.
For test [11], the target named is HLA-B*57:01. The description is as above.
The target in a further test is HLA-B*39:01. Described as above.
A further test addresses HLA-A*68:02. Described as above. The note with it: source organism: Maporal virus.
Test [12] addresses HLA-A*02:01. The test is described as above.
Test [13] concerns the target HLA-B*46:01. Described as above.
For a further test, the target named is HLA-A*69:01. The description is as above.
The target in the next test is HLA-A*01:01. Described as above.
For another test, the target named is HLA-B*07:02. Described as above.
The target of another test is HLA-A*31:01. The test is described as above.
In another test the target is HLA-B*27:05. The test is described as above.
Test [14] has as its target HLA-A*03:01. The test is described as above.
For test [15], the target named is HLA-B*18:01. The description is as above.
In test [16] the target is HLA-B*15:01. Described as above.
The next test deals with HLA-A*11:01. Described as above.
A further test deals with HLA-B*08:02. The test is described as above. Particulars: source organism: Influenza A virus(A/swine/Shandong/fNY/2003(H9N2)).
A further test concerns the target HLA-A*24:02. The test is described as above. The note with it: source organism: Influenza A virus (A/Viet Nam/HN/2004(H5N1)).
The target of another test is HLA-B*08:01. The test is described as above. Particulars: source organism: Influenza A virus (A/Viet Nam/HN/2004(H5N1)).
Another test concerns the target HLA-B*40:01. The description is as above.
[17] abbreviates: source organism: Vibrio parahaemolyticus K5030.
Setting [18] is: source organism: Cryptosporidium parvum Iowa II.
[19] abbreviates: source organism: Orthohantavirus andesense.
Where [20] appears, read: source organism: Influenza A virus (A/Viet Nam/HN/2004(H5N1)).
Where [21] appears, read: source organism: Mycobacterium avium 104.
The mark [22] stands for this setting: source organism: Encephalitozoon cuniculi GB-M1.

Take LQNFCQHLV: the Kd is 0.0006 µM with HLA-A*02:11 (setting [17]); no less than 20 µM with HLA-A*24:03 [1] (setting [17]); 0.0196 µM in the test with HLA-A*29:02 [2]; no less than 20 µM in the test with HLA-B*57:01 [3] (setting [17]); 0.0251 µM in the test with HLA-A*02:19 (setting [17]); 0.0024 µM in the test with HLA-A*02:01 [4] (setting [17]). The Kd with HLA-B*51:01 (setting [17]), with HLA-B*46:01 [5] (setting [17]), with HLA-B*27:03 (setting [17]), with HLA-A*26:01 (setting [17]), in the test with HLA-A*03:01 [6] (setting [17]) and in the test with HLA-B*18:01 [7] was no less than 20 µM in each case.

SGLPGIFIV: the Kd in the test with HLA-A*02:11 (setting [18]) was 5.45 µM; with HLA-B*57:01 [3] (setting [18]) it was no less than 20 µM; with HLA-A*02:19 (setting [18]) it was no less than 20 µM; in the test with HLA-A*02:01 [4] (setting [18]) it was no less than 20 µM; with HLA-B*15:17 (setting [18]), no less than 20 µM; with HLA-B*46:01 [5] (setting [18]), no less than 20 µM. Besides, the dissociation constant Kd in the test with HLA-B*27:03 (setting [18]), in the test with HLA-A*26:01 (setting [18]), in the test with HLA-A*03:01 [6] (setting [18]), in the test with HLA-A*02:03 and in the test with HLA-B*15:01 [8] was no less than 20 µM each time.

In turn, GYDFEREGY gave a Kd with HLA-A*24:03 [1] (source organism: Influenza A virus (A/swine/Italy/1509-6/97(H1N1))) of 0.0358 µM.

In the test with HLA-A*24:03 [1] (source organism: Bacillus cereus G9241), AYYKPYVQL came in with a Kd of 0.0009 µM.

Take TRDHVNLVL: the Kd in the test with HLA-B*48:01 (setting [19]), with HLA-B*58:01 (setting [19]), in the test with HLA-A*24:03 [9], in the test with HLA-A*29:02 [10] (setting [19]), in the test with HLA-B*44:02 (setting [19]) and in the test with HLA-A*02:12 was no less than 20 µM in each case. Further, the Kd in the test with HLA-B*57:01 [11] (setting [19]) was no less than 20 µM; with HLA-B*39:01 (setting [19]), 0.0457 µM; in the test with HLA-A*68:02, no less than 20 µM; with HLA-A*02:01 [12] (setting [19]), no less than 20 µM; in the test with HLA-B*46:01 [13] (setting [19]) it was no less than 20 µM; with HLA-A*69:01 (setting [19]), no less than 20 µM. The Kd with HLA-A*01:01 (setting [19]), in the test with HLA-B*07:02 (setting [19]), in the test with HLA-A*31:01 (setting [19]), in the test with HLA-B*27:05 (setting [19]), with HLA-A*03:01 [14] (setting [19]) and with HLA-B*18:01 [15] (setting [19]) was no less than 20 µM each time. For the same sequence, the Kd in the test with HLA-B*15:01 [16] (setting [19]), in the test with HLA-B*51:01 (setting [19]), with HLA-B*15:17 (setting [19]), with HLA-B*27:03 (setting [19]) and with HLA-A*26:01 (setting [19]) was no less than 20 µM throughout.

Take VHFRNQVKI: the Kd is no less than 20 µM with HLA-B*58:01 (setting [20]); 1.56 µM with HLA-B*39:01 (setting [20]); no less than 20 µM with HLA-A*11:01 (setting [20]); no less than 20 µM with HLA-B*08:02; no less than 20 µM in the test with HLA-A*02:01 [12] (setting [20]); no less than 20 µM with HLA-A*24:02. In addition, the Kd in the test with HLA-B*46:01 [13] (setting [20]), with HLA-A*69:01 (setting [20]), in the test with HLA-A*01:01 (setting [20]), with HLA-B*07:02 (setting [20]), with HLA-A*31:01 (setting [20]) and with HLA-B*08:01 was no less than 20 µM in each case. The Kd in the test with HLA-B*27:05 (setting [20]), with HLA-A*03:01 [14] (setting [20]), in the test with HLA-B*40:01 (setting [20]) and in the test with HLA-B*15:01 [16] (setting [20]) was no less than 20 µM throughout.

As to VRDVVMPAL, the Kd with HLA-B*48:01 (setting [21]) was no less than 20 µM; with HLA-B*58:01 (setting [21]), no less than 20 µM; with HLA-A*29:02 [10] (setting [21]), no less than 20 µM; with HLA-B*44:02 (setting [21]), no less than 20 µM; in the test with HLA-B*57:01 [11] (setting [21]), no less than 20 µM; with HLA-B*39:01 (setting [21]), 0.0674 µM. In addition, the Kd in the test with HLA-A*11:01 (setting [21]), in the test with HLA-A*02:01 [12] (setting [21]), with HLA-B*46:01 [13] (setting [21]), in the test with HLA-A*69:01 (setting [21]), with HLA-A*01:01 (setting [21]) and with HLA-A*31:01 (setting [21]) was no less than 20 µM throughout. Besides, the Kd with HLA-B*27:05 (setting [21]), with HLA-A*03:01 [14] (setting [21]), in the test with HLA-B*18:01 [15] (setting [21]), with HLA-B*40:01 (setting [21]) and with HLA-B*15:01 [16] (setting [21]) was no less than 20 µM in each case.

As for SMIFSVLDA, the Kd in the test with HLA-A*02:11 (setting [22]) is 0.129 µM; with HLA-A*02:01 [4] (setting [22]) it was 0.0014 µM.

By Kd is commonly meant the constant that tells how readily two partners part at equilibrium. A high value points to lower affinity.
